Values quoted from earlier work in PMC6589385.

Molecular target: His19 (position 19, …)
Assay: NMR
Details: Membrane-bound wild-type BM2 tetrameric channel

MLEPFQILSISSFILSALHFMAWTIGHLNQIKR [Influenza B virus M2 protein (BM2) transmembrane domain, wild type (Influenza B virus)]
pKa: 5.1
